# Source: the supplement of paper PMC12783771
# ± gives the standard deviation of the averaged measurements.
# B1: library; numbered along this chain (parent)
# chain: MNIQIGELAKRTACPVVTIRFYEQEGLLPPPGRSRGNFRLYGEEHVERLQFIRHCRSLDMPLSDVRTLLSYRKRPDQDCGEVNMLLDEHIRQVESRIGALLELKHHLVELREACSGARPAQSCGILQGLSDCVCDTRGTTAHPSD
# What was measured:
# [1] = variants of: B1; test: sfGFP reporter fluorescence (15 h) (µM FITC); higher = higher leak; details: library round: Round 0; ligand: none
# Outline: (§1)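 Linear PbrR templates were made by PCR, normalized to 5 nM with an Echo, and expressed in BL21 Star (DE3) PANOx-SP extract with the pPbrR-sfGFP reporter plasmid and 30 μg/mL GamS. Echo-assembled 1 μL reactions held 1 µM lead chloride, 30 µM zinc acetate or no metal and were incubated 15 hr at 30 °C. Endpoint sfGFP fluorescence was read on a Synergy Neo2 and expressed as µM FITC using standard curves. Up to three biological replicates were run.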
# [2] = variants of: B1; test: sfGFP reporter fluorescence (15 h) (µM FITC); higher = stronger transcriptional activation; details: library round: Round 0
# Outline: as §1
Variant,sfGFP reporter fluorescence [1],sfGFP reporter fluorescence ([2]; ligand: 1 µM Pb),sfGFP reporter fluorescence ([2]; ligand: 30 µM Zn)
D135G,0.0531,0.0764 ± 0.0023,0.802 ± 0.074
L62N,0.061 ± 0.00078,0.0632 ± 0.00078,0.08008 ± 0.00026
I3K,0.0608 ± 0.001,0.0652 ± 0.0057,0.308 ± 0.008
I3Q,0.0548 ± 0.0029,0.0671 ± 0.0026,0.336 ± 0.0075
I3R,0.0605,0.0792,0.376 ± 0.024
I3A,0.0544 ± 0.0049,0.0594 ± 0.001,0.339 ± 0.0078
Q92A,0.0592 ± 0.0013,0.063 ± 0.0026,0.421 ± 0.042
H89Y,0.0596 ± 0.0018,0.0574 ± 0.0018,0.0566 ± 0.0023
H89L,0.059 ± 0.0026,0.0553 ± 0.0021,0.0649 ± 0.0042
H89T,0.0614 ± 0.00078,0.0579 ± 0.0021,0.0588 ± 0.0054
M60L D64K L107C G128M,5.61 ± 0.24,4.82 ± 0.34,4.67 ± 0.83
L129I,0.0535 ± 0.0021,0.0592 ± 0.0013,0.163 ± 0.012
L129Y,0.057 ± 0.0018,0.05901 ± 0.00052,0.05626 ± 0.00026
Y41C,0.0618 ± 0.0018,0.0592 ± 0.00078,0.0654 ± 0.0018
Y41I,0.0575 ± 0.0015,0.0572 ± 0.0021,0.0623 ± 0.0031
Y41R,0.0618 ± 0.0013,0.0623 ± 0.001,0.0643 ± 0.0013
Y41T,0.0597 ± 0.0026,0.05974 ± 0.00052,0.0592 ± 0.0039
R20A,0.05772 ± 0.00026,0.0548 ± 0.0018,0.0572 ± 0.001
R20F,0.0566 ± 0.0013,0.05846 ± 0.00026,0.0581 ± 0.0039
R20H,0.0618 ± 0.0044,0.0647 ± 0.0018,0.1048 ± 0.001
C55E,0.061 ± 0.0013,0.06029 ± 0.00026,0.0607 ± 0.0013
C55T,0.0577 ± 0.00078,0.0594 ± 0.0042,0.129 ± 0.0018

Variant,sfGFP reporter fluorescence [1],sfGFP reporter fluorescence ([2]; ligand: 1 µM Pb),sfGFP reporter fluorescence ([2]; ligand: 30 µM Zn)
G128D,0.0603 ± 0.0023,0.0607 ± 0.00078,0.108 ± 0.0029
G128L,0.0715 ± 0.0031,0.203 ± 0.03,2.04 ± 0.21
G128R,0.161 ± 0.007,0.316 ± 0.038,3.05 ± 0.31
C134L,0.0673 ± 0.00078,0.113 ± 0.012,1.3 ± 0.054
C134Y,0.072 ± 0.0034,0.154 ± 0.012,1.49 ± 0.19
C134Q,0.0652,0.0953 ± 0.001,1.33 ± 0.4
C134G,0.0651 ± 0.0029,0.0841 ± 0.0013,1.35 ± 0.059
Y22G,0.0594 ± 0.0031,0.05846 ± 0.00026,0.0605 ± 0.0015
Y22I,0.0605 ± 0.0015,0.0583 ± 0.0015,0.0564 ± 0.0036
Y22S,0.0636 ± 0.0013,0.06084 ± 0.00052,0.0619 ± 0.001
V82Q,0.0579 ± 0.0021,0.05699 ± 0.00026,0.0552 ± 0.0013
V82S,0.0592 ± 0.0023,0.057 ± 0.0018,0.05552 ± 0.00026
V82P,0.057 ± 0.00078,0.05754 ± 0.00052,0.0577 ± 0.0013
V16A,0.059 ± 0.0015,0.0729 ± 0.0015,1.06 ± 0.1
V16W,0.0599 ± 0.0018,0.0623 ± 0.0021,0.064 ± 0.00078
V16K,0.0641 ± 0.0021,0.115 ± 0.0021,1.93 ± 0.075
H142A,0.0614 ± 0.0034,0.0718 ± 0.001,0.728 ± 0.32
C114Y,0.0585 ± 0.0018,0.0586,0.0544 ± 0.0013
C114M,0.05937 ± 0.00052,0.0603 ± 0.0013,0.0616 ± 0.0015
C114H,0.0581 ± 0.0023,0.0586,0.0563 ± 0.0034
P15T,0.0632 ± 0.00078,0.1006 ± 0.00078,0.859 ± 0.058
P15L,0.0667,0.0938 ± 0.0036,1.06 ± 0.078

Variant,sfGFP reporter fluorescence [1],sfGFP reporter fluorescence ([2]; ligand: 1 µM Pb),sfGFP reporter fluorescence ([2]; ligand: 30 µM Zn)
P15F,0.0662 ± 0.0018,0.0702 ± 0.0049,0.256 ± 0.013
P15W,0.061 ± 0.0013,0.06139 ± 0.00026,0.06634 ± 0.00052
I125T,0.0585 ± 0.0023,0.0566 ± 0.0013,0.06414 ± 0.00052
I125R,0.0608 ± 0.0026,0.0603 ± 0.0013,0.0575 ± 0.0021
I125E,0.0597 ± 0.0026,0.0581 ± 0.00078,0.0557 ± 0.0031
D64Y,0.61 ± 0.017,1.75 ± 0.51,3.81 ± 0.17
D64L,2.28 ± 0.17,3.29 ± 0.26,4.32 ± 0.14
D64V,0.177 ± 0.0098,0.5072 ± 0.0036,3.52 ± 0.1
D64G,0.06322 ± 0.00026,0.121 ± 0.0054,1.26 ± 0.049
D64N,0.06652 ± 0.00026,0.137 ± 0.006,1.64 ± 0.084
L126D,0.0597 ± 0.0021,0.0581 ± 0.00078,0.0544 ± 0.0029
L126S,0.0592 ± 0.0018,0.0585 ± 0.00078,0.05443 ± 0.00026
M60L K104V L107C G128M,2.296 ± 0.0044,4.53 ± 0.18,3.641 ± 0.033
P61N G128I,0.1886 ± 0.0018,0.682 ± 0.092,3.06 ± 0.22
Q121A,0.0645 ± 0.001,0.0944 ± 0.0023,1.16 ± 0.19
I97V,0.0563 ± 0.0023,0.0605 ± 0.0026,0.338 ± 0.015
I97Q,0.057 ± 0.0029,0.057 ± 0.0034,0.287 ± 0.0088
I97R,0.0577 ± 0.0054,0.0564 ± 0.0015,0.116 ± 0.0013
I97L,0.0596 ± 0.0023,0.0797 ± 0.0044,0.842 ± 0.014
I97N,0.0566 ± 0.0029,0.0603 ± 0.0039,0.325 ± 0.0065
I97T,0.0579 ± 0.0042,0.0662 ± 0.0034,0.579 ± 0.0096
I97E,0.0574 ± 0.0044,0.0618 ± 0.0018,0.386 ± 0.055

Variant,sfGFP reporter fluorescence [1],sfGFP reporter fluorescence ([2]; ligand: 1 µM Pb),sfGFP reporter fluorescence ([2]; ligand: 30 µM Zn)
I97C,0.0601 ± 0.0015,0.0702 ± 0.0065,0.761 ± 0.036
R66A,0.0627 ± 0.0015,0.0751 ± 0.0047,0.616 ± 0.13
R33W,0.0636 ± 0.00078,0.0629 ± 0.0039,0.0718 ± 0.0021
R33E,0.06157 ± 0.00052,0.06304 ± 0.00052,0.0715 ± 0.0031
R33I,0.05772 ± 0.00026,0.05662 ± 0.00026,0.06542 ± 0.00026
V108A,0.06304 ± 0.00052,0.0729 ± 0.0042,0.408 ± 0.11
V108L,0.0594 ± 0.001,0.0696 ± 0.0026,0.616 ± 0.035
V108M,0.05662 ± 0.00026,0.0682 ± 0.0026,0.583 ± 0.019
V108I,0.0566 ± 0.0013,0.0667 ± 0.0026,0.508 ± 0.011
K104I,0.0616 ± 0.0057,0.165 ± 0.044,1.22 ± 0.053
K104C,0.0614 ± 0.0091,0.133 ± 0.026,1.32 ± 0.18
K104Q,0.0601 ± 0.0026,0.0832 ± 0.015,0.901 ± 0.022
K104T,0.0619 ± 0.0021,0.0925 ± 0.015,0.865 ± 0.13
K104A,0.05974 ± 0.00052,0.0759 ± 0.0021,0.591 ± 0.037
M60L G128I,0.336 ± 0.012,1.4 ± 0.016,3.625 ± 0.027
K104V G128M,0.179 ± 0.0031,0.808 ± 0.088,3.325 ± 0.0054
P30Y,0.0616 ± 0.001,0.0771 ± 0.0049,0.612 ± 0.013
P30S,0.06249 ± 0.00026,0.0801 ± 0.0039,0.651 ± 0.14
P30R,0.06414 ± 0.00052,0.088,1.15 ± 0.039
R39M,0.06139 ± 0.00026,0.0616 ± 0.0026,0.0583
R39H,0.0625 ± 0.0018,0.0652 ± 0.0031,0.0663 ± 0.0047
R39G,0.0555 ± 0.00078,0.0563 ± 0.0023,0.0563 ± 0.0018
